Consider 2 variants from IntAct's records for PubMed 10318831.

The chains are these.
B1: Semaphorin-4C (Mus musculus), Q64151 (parent)
chain: MAPHWAVWLLAAGLWGLGIGAEMWWNLVPRKTVSSGELVTVVRRFSQTGIQDFLTLTLTEHSGLLYVGAREALFAFSVEALELQGAISWEAPAEKKIECTQKGKSNQTECFNFIRFLQPYNSSHLYVCGTYAFQPKCTYINMLTFTLDRAEFEDGKGKCPYDPAKGHTGLLVDGELYSATLNNFLGTEPVILRYMGTHHSIKTEYLAFWLNEPHFVGSAFVPESVGSFTGDDDKIYFFFSERAVEYDCYSEQVVARVARVCKGDMGGARTLQKKWTTFLKARLVCSAPDWKVYFNQLKAVHTLRGASWHNTTFFGVFQARWGDMDLSAVCEYQLEQIQQVFEGPYKEYSEQAQKWARYTDPVPSPRPGSCINNWHRDNGYTSSLELPDNTLNFIKKHPLMEDQVKPRLGRPLLVKKNTNFTHVVADRVPGLDGATYTVLFIGTGDGWLLKAVSLGPWIHMVEELQVFDQEPVESLVLSQSKKVLFAGSRSQLVQLSLADCTKYRFCVDCVLARDPYCAWNVNTSRCVATTSGRSGSFLVQHVANLDTSKMCNQYGIKKVRSIPKNITVVSGTDLVLPCHLSSNLAHAHWTFGSQDLPAEQPGSFLYDTGLQALVVMAAQSRHSGPYRCYSEEQGTRLAAESYLVAVVAGSSVTLEARAPLENLGLVWLAVVALGAVCLVLLLLVLSLRRRLREELEKGAKASERTLVYPLELPKEPASPPFRPGPETDEKLWDPVGYYYSDGSLKIVPGHARCQPGGGPPSPPPGIPGQPLPSPTRLHLGGGRNSNANGYVRLQLGGEDRGGSGHPLPELADELRRKLQQRQPLPDSNPEESSV
partner: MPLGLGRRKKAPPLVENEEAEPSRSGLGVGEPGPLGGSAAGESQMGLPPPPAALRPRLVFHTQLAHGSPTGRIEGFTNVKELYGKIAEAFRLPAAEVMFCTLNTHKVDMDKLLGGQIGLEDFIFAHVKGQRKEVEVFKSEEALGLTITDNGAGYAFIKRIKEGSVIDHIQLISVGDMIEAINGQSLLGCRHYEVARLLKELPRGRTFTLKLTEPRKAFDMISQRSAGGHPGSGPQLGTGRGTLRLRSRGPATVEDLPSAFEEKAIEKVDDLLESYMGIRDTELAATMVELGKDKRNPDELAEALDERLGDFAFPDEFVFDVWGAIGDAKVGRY

Variants of B1 are the subject of the assay. Particulars: with gipc1_mouse Gipc1, Q9Z0G0.
Regarding S832D, the “effect of a mutation on the interaction” value is on record as “disrupting interaction”.
The same measure for S832A: “disrupting interaction”.
